We go through one molecule from patent US20230151084A1, “COMPOSITIONS AND METHODS OF […] CELL RESPONSE” (CASE WESTERN RESERVE UNIVERSITY, priority 2015, published 2023).

The assay concerns B cells. In words: BAFF and APRIL B cell growth (viability signaling in B cells). Type of assay: cell-based. Particulars: added C5a, compared with disabling B cell C3aR/C5aR signaling, which suppressed growth (FIG. 3). An excerpt:
FIGS. 3(A-B) illustrate graphs showing BAFF and APRIL viability signaling in B cells depends on C3aR/C5aR signaling.
(FIGS. 1(A-C) and FIGS. 2(A-B)). […] (FIGS. 3(A-C)). […] (FIGS. 4(A-B)). Following ova immunization, recipients of adoptively transferred C3ar1^−/−C5ar1^−/− B cells produced reduced IgM Ab and no other isotypes.

B1: C5a: complement anaphylatoxin C5a, ligand of the C5a receptor (C5aR), added to B cells (protein, UniProt P01031 678-751, looked up)
C5a anaphylatoxin: TLQKKIEEIAAKYKHSVVKKCCYDGACVNNDETCEQRAARISLGPRCIKAFTECCVVASQLRANISHKDMQLGR
modifications: C5a anaphylatoxin
notes: complement anaphylatoxin C5a, ligand of the C5a receptor (C5aR), added to B cells
Take B1: the “BAFF and APRIL B cell growth” value is recorded as “opposite effect”.
